Assay results from article PMC4764080 (Cell, 2009).
Square brackets hold non-standard residues; d marks the D form. pY = N[C@@H](Cc1ccc(OP(=O)(O)O)cc1)C(=O)O

Columns and labels:
[1] = tested on: PLCγ pY783; assay: Tyrosine phosphorylation of PLCγ; assay type: cell-based; conditions: L6 myoblasts stably expressing FGFR1; 100 ng/mL FGF, 5 min, 37 °C; anti-pY783 (PLCγ) immunoblot
[2] = biological target: FGFR1-3P (trisphosphorylated cytoplasmic region of FGFR1: tyrosine kinase domain and C-terminal tail) (UniProt P11362); assay: ITC
[3] = biological target: pY766 peptide (synthetic phosphopeptide of the C-terminal region of FGFR1, TSNQEpYLDLSM); assay: SPR
[4] = biological target: FGFR1-3P (trisphosphorylated cytoplasmic region of FGFR1: tyrosine kinase domain and C-terminal tail) (UniProt P11362); assay: SPR
[5] = biological target: FGFR1-3P (trisphosphorylated cytoplasmic region of FGFR1: tyrosine kinase domain and C-terminal tail) (UniProt P11362); assay: SPR; remark: listed apart in the source
[6] = biological target: FGFR1-3P(RD/VV) (UniProt P11362); assay: ITC
[7] = biological target: FGFR1-3P(VV/DD) (UniProt P11362); assay: ITC
[8] = biological target: T1, isolated N-SH2 domain of PLCγ (rat); assay: ITC
T1 sequence (P10686 whole entry, looked up): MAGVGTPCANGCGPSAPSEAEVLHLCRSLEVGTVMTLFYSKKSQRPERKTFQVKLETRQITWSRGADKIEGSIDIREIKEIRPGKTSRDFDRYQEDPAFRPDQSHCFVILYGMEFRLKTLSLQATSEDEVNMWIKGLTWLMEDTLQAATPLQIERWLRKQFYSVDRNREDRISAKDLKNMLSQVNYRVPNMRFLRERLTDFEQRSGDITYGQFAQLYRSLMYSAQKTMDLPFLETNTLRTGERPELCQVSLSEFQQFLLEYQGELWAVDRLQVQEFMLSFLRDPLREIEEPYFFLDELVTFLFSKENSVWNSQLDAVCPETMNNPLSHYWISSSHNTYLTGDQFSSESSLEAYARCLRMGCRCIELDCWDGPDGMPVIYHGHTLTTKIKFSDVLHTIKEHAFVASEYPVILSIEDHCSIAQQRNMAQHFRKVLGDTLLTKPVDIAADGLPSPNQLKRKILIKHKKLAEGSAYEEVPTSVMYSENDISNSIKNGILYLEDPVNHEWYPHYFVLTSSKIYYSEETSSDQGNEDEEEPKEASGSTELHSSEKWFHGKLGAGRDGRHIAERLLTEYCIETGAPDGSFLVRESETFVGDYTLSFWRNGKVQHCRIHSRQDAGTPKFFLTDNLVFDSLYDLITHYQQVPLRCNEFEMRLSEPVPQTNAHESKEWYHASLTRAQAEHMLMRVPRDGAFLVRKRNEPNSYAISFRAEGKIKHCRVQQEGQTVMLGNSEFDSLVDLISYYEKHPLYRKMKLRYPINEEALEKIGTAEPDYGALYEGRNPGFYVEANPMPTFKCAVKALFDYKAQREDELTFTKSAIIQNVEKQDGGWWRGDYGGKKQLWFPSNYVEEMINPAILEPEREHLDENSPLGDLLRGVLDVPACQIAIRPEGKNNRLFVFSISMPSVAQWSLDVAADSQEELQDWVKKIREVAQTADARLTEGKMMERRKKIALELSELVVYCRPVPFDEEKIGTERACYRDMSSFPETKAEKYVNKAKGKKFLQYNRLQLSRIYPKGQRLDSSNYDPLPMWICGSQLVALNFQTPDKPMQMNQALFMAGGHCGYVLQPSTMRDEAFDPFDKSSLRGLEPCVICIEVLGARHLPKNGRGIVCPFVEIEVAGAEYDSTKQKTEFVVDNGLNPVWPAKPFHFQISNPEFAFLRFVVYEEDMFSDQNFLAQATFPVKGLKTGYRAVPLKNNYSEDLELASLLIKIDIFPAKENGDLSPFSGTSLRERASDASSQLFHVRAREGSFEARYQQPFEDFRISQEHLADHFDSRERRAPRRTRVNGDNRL

[9] = biological target: T2, isolated C-SH2 domain of PLCγ (rat); assay: ITC
T2 sequence (P10686 whole entry, looked up): T1 sequence (P10686 whole entry, looked up)

FGFR1(Y766F): FGFR1 mutant Y766F in the primary binding site for the N-SH2 domain, expressed in L6 myoblasts
tyrosine phosphorylation of PLCγ [1]: negligible tyrosine phosphorylation of PLCγ

WT FGFR1: wild type FGFR1 stably expressed in L6 myoblasts
tyrosine phosphorylation of PLCγ [1]: tyrosine phosphorylation of PLCγ

isolated C-SH2 domain of PLCγ (domain or fragment)
Kd [2]: 490 nM

isolated N-SH2 domain of PLCγ (domain or fragment)
Kd [3]: 5670 nM
Kd [4]: 142 nM
Kd [5]: 44 nM
Kd [2]: 33 nM
Kd [6]: 112 nM
Kd [7]: 221 nM

{biotin‑XX}-TSNQE[pY]LDLSM-NH2 [pY766 peptide (synthetic phosphopeptide of the C-terminal region of FGFR1, TSNQEpYLDLSM)]
Kd [8]: 433 nM
Kd [9]: 1810 nM
